biological target: T1, SEC-purified human FcRn-HPC4 (human, UniProt P55899 24-297; P61769 21-119); assay: Biacore SPR; antibody at 200, 50 and 10nM over immobilized FcRn
T1 construct: Immobilized on a CM5 chip by amine coupling; also called human FcRn receptor; not shown: HPC4 tag

| Binder | binding result |
| --- | --- |
| Anti-CD-52 2C3 A114N mutant antibody (antibody, human IgG1, kappa, additional N-linked glycan at the engineered Asn 114 (Kabat), Full-length IgG1; mutated heavy chain with the WT 2C3 light chain) heavy: not shown light: DIVMTQTPLSLSVTPGQPASISCKSSQSLLYSNGKTYLNWLLQKPGQSPQRLIYLVSKLDSGVPDRFSGSGSGTDFTLKISRVEAEDVGVYYCVQGTHLHTFGQGTRLEIKRTVAAPSVFIFPPSDEQLKSGTASVVCLLNNFYPREAKVQWKVDNALQSGNSQESVTEQDSKDSTYSLSSTLTLSKADYEKHKVYACEVTHQGLSSPVTKSFNRGEC | binds |
| Anti-CD-52 2C3 NGT mutant antibody (antibody, human IgG1, kappa, Full-length IgG1; NGT added to the C-terminus of the heavy chain; WT 2C3 light chain; also called Add NGT to C-terminal) heavy: not shown light: DIVMTQTPLSLSVTPGQPASISCKSSQSLLYSNGKTYLNWLLQKPGQSPQRLIYLVSKLDSGVPDRFSGSGSGTDFTLKISRVEAEDVGVYYCVQGTHLHTFGQGTRLEIKRTVAAPSVFIFPPSDEQLKSGTASVVCLLNNFYPREAKVQWKVDNALQSGNSQESVTEQDSKDSTYSLSSTLTLSKADYEKHKVYACEVTHQGLSSPVTKSFNRGEC | binds |
| Anti-CD-52 2C3 S442N mutant antibody (antibody, IgG1, Full-length IgG1; mutated heavy chain with the WT 2C3 light chain) heavy: not shown light: DIVMTQTPLSLSVTPGQPASISCKSSQSLLYSNGKTYLNWLLQKPGQSPQRLIYLVSKLDSGVPDRFSGSGSGTDFTLKISRVEAEDVGVYYCVQGTHLHTFGQGTRLEIKRTVAAPSVFIFPPSDEQLKSGTASVVCLLNNFYPREAKVQWKVDNALQSGNSQESVTEQDSKDSTYSLSSTLTLSKADYEKHKVYACEVTHQGLSSPVTKSFNRGEC | binds |

The remaining lines, values ahead:

| binding result | Binder |
| --- | --- |
| binds | Anti-CD-52 2C3 S298N/Y300S mutant antibody (antibody, human IgG1, kappa, Full-length IgG1; also called S298N/Y300S 2C3 variant; S298/Y300S) heavy: not shown light: DIVMTQTPLSLSVTPGQPASISCKSSQSLLYSNGKTYLNWLLQKPGQSPQRLIYLVSKLDSGVPDRFSGSGSGTDFTLKISRVEAEDVGVYYCVQGTHLHTFGQGTRLEIKRTVAAPSVFIFPPSDEQLKSGTASVVCLLNNFYPREAKVQWKVDNALQSGNSQESVTEQDSKDSTYSLSSTLTLSKADYEKHKVYACEVTHQGLSSPVTKSFNRGEC |
| binds | Anti-CD-52 2C3 S440N mutant antibody (antibody, IgG1, Full-length IgG1; mutated heavy chain with the WT 2C3 light chain) heavy: not shown light: DIVMTQTPLSLSVTPGQPASISCKSSQSLLYSNGKTYLNWLLQKPGQSPQRLIYLVSKLDSGVPDRFSGSGSGTDFTLKISRVEAEDVGVYYCVQGTHLHTFGQGTRLEIKRTVAAPSVFIFPPSDEQLKSGTASVVCLLNNFYPREAKVQWKVDNALQSGNSQESVTEQDSKDSTYSLSSTLTLSKADYEKHKVYACEVTHQGLSSPVTKSFNRGEC |
